Laboratory results: PMC6276866 (Circulation, 2018)

B1: recombinant B56α protein (natural protein)
chain: not shown

How the values were obtained:
recombinant B56α protein = target: B1; test: SPR
[1] = target: purified recombinant AnkB, wild type (SPR) (UniProt Q01484-2 1-1872); test: SPR

Sequence of recombinant B56α protein (Q15172 whole entry): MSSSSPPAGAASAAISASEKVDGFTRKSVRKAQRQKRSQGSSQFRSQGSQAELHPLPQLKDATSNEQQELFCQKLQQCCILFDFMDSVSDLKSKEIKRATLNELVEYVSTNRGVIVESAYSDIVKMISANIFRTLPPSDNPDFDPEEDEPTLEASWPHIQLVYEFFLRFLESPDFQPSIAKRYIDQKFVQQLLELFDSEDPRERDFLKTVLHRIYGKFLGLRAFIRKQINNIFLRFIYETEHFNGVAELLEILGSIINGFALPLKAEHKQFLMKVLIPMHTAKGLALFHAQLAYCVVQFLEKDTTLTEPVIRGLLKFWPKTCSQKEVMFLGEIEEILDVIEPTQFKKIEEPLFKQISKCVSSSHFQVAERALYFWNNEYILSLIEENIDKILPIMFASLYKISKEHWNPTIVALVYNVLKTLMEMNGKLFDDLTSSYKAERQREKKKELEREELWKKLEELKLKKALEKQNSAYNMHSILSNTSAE

| Binder | Kd (recombinant B56α protein) | Kd [1] |
| --- | --- | --- |
| purified recombinant mutant AnkB (p.Q1283H) (SPR) (natural protein) MMNEDAAQKSDSGEKFNGSSQRRKRPKKSDSNASFLRAARAGNLDKVVEYLKGGIDINTCNQNGLNALHLAAKEGHVGLVQELLGRGSSVDSATKKGNTALHIASLAGQAEVVKVLVKEGANINAQSQNGFTPLYMAAQENHIDVVKYLLENGANQSTATEDGFTPLAVALQQGHNQAVAILLENDTKGKVRLPALHIAARKDDTKSAALLLQNDHNADVQSKMMVNRTTESGFTPLHIAAHYGNVNVATLLLNRGAAVDFTARNGITPLHVASKRGNTNMVKLLLDRGGQIDAKTRDGLTPLHCAARSGHDQVVELLLERGAPLLARTKNGLSPLHMAAQGDHVECVKHLLQHKAPVDDVTLDYLTALHVAAHCGHYRVTKLLLDKRANPNARALNGFTPLHIACKKNRIKVMELLVKYGASIQAITESGLTPIHVAAFMGHLNIVLLLLQNGASPDVTNIRGETALHMAARAGQVEVVRCLLRNGALVDARAREEQTPLHIASRLGKTEIVQLLLQHMAHPDAATTNGYTPLHISAREGQVDVASVLLEAGAAHSLATKKGFTPLHVAAKYGSLDVAKLLLQRRAAADSAGKNGLTPLHVAAHYDNQKVALLLLEKGASPHATAKNGYTPLHIAAKKNQMQIASTLLNYGAETNIVTKQGVTPLHLASQEGHTDMVTLLLDKGANIHMSTKSGLTSLHLAAQEDKVNVADILTKHGADQDAHTKLGYTPLIVACHYGNVKMVNFLLKQGANVNAKTKNGYTPLHQAAQQGHTHIINVLLQHGAKPNATTANGNTALAIAKRLGYISVVDTLKVVTEEVTTTTTTITEKHKLNVPETMTEVLDVSDEEGDDTMTGDGGEYLRPEDLKELGDDSLPSSQFLDGMNYLRYSLEGGRSDSLRSFSSDRSHTLSHASYLRDSAVMDDSVVIPSHQVSTLAKEAERNSYRLSWGTENLDNVALSSSPIHSGFLVSFMVDARGGAMRGCRHNGLRIIIPPRKCTAPTRVTCRLVKRHRLATMPPMVEGEGLASRLIEVGPSGAQFLGPVIVEIPHFAALRGKERELVVLRSENGDSWKEHFCDYTEDELNEILNGMDEVLDSPEDLEKKRICRIITRDFPQYFAVVSRIKQDSNLIGPEGGVLSSTVVPQVQAVFPEGALTKRIRVGLQAQPMHSELVKKILGNKATFSPIVTLEPRRRKFHKPITMTIPVPKASSDVMLNGFGGDAPTLRLLCSITGGTTPAQWEDITGTTPLTFVNECVSFTTNVSARFWLIDCRQIQESVTFASHVYREIICVPYMAKFVVFAKSHDPIEARLRCFCMTDDKVDKTLEQQENFAEVARSRDVEVLEGKPIYVDCFGNLVPLTKSGQHHIFSFFAFKENRLPLFVKVRDTTQEPCGRLSFMKEPKSTRGLVHQAICNLNITLPIYTKESESDQEQEEEIDMTSEKNPQDEQERIEERLAYIADHLGFSWTELARELDFTEEQIHQIRIENPNSLQDQSHALLKYWLERDGKHATDTNLVECLTKINRMDIVHLMETNTEPLQERISHSYAEIEQTITLDHSEGFSVLQEELCTAQHKQKEEQAVSKESETCDHPPIVSEEDISVGYSTFQDGVPKTEGDSSATALFPQTHKEQVQQDFSGKMQDLPEESSLEYQQEYFVTTPGTETSETQKAMIVPSSPSKTPEEVSTPAEEEKLYLQTPTSSERGGSPIIQEPEEPSEHREESSPRKTSLVIVESADNQPETCERLDEDAAFEKGDDMPEIPPETVTEEEYIDEHGHTVVKKVTRKIIRRYVSSEGTEKEEIMVQGMPQEPVNIEEGDGYSKVIKRVVLKSDTEQSEDNNE | 22.2 ± 6.42 µM |  |
| B1 |  | 1.64 ± 0.05 µM |
